# Test results published in the RNAGym collection of RNA variant scans (doi:10.1093/nar/gkz1192).
# B1: CPEB3 Ribozyme (parent)
# chain: UAACAGGGGGCCACAGCAGAAGCGUUCACGUCGCAGCCCCUGUCAGAUUCUGGUGAAUCUGCGAAUUCUGCUGUAUAUCUC
# Variants of: B1
# Assay: self-cleavage, relative activity (ratio to wild type); higher = more cleavage; in vitro, sequencing
# Procedure, shortened: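 Barcoded CPEB3 ribozyme mutants, produced by rounds of error-prone PCR, self-cleaved while being transcribed with T7 RNA polymerase for 5 hours at 37°C and during a subsequent 15 min DNase I step before EDTA was added. Sequencing of template-switched cDNA on Illumina gave cleaved and total reads, and DNA sequencing assigned barcodes to variants. Each variant's relative activity is its cleaved/total read fraction divided by the unmutated ribozyme's fraction, averaged across three batches. A variant needed a minimum of 5 reads.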
row,Variant,self-cleavage
1,A2U U66C,0.38
2,A2U U66A,0.52
3,A2U A57G,0.83
4,A3C A47G,1.12
5,A2G A28C,0.38
6,A2G A28U,0.52
7,A2G A28G,0.4
8,A2U U54C,1.13
9,A2U U54A,1.15
10,A2U U54G,0.77
11,A2G U25C,0.49
12,A2G U25A,0.36
13,A2G A65G,0.29
14,A2G A65U,0.38
15,A2U U67A,0.49
16,A2U U67C,0.39
17,A2U U51G,1.17
18,A2U U51A,1.17
19,A2U U51C,1.07
20,A2G A3G,1.01
21,A2G A3C,0.89
22,A2U C40U,0.89
23,A2U C40G,0.31
24,A2G G63U,0.62

row,Variant,self-cleavage
1,A2U A13U,1.08
2,A2U A13G,0.84
3,A2C U51A,0.7
4,A2C U51G,0.92
5,A2G U48C,0.28
6,A2G U48A,0.09
7,A2U A15U,0.41
8,A2U A15G,0.8
9,A2C U48C,0.71
10,A2G C38U,0.68
11,A2U G10A,0.26
12,A2U G10U,0.29
13,A3C U51C,1.12
14,A3C U51A,1.19
15,A2G A77C,0.54
16,A2G A77G,0.64
17,A2G A77U,0.62
18,A2U G70C,0.31
19,A2U U31C,0.81
20,A2U U31A,0.48
21,A2U A5G,0.71
22,A2U A5U,1.09
23,A3C A56G,1.12
24,A3C A56U,0.65

row,Variant,self-cleavage
1,A2U G24A,0.3
2,A2U G24U,0.34
3,A2G G52U,0.77
4,A2G G52A,0.65
5,A2G G52C,0.83
6,A3C U54C,1.17
7,A2G U72G,0.42
8,A2G U72C,0.74
9,A2G U72A,0.36
10,A2U U78C,0.87
11,A2G G22U,0.07
12,A2G G22A,0.22
13,A2C G9U,0.21
14,A2G U76A,0.73
15,A2G U76C,0.73
16,A2G G10A,0.41
17,A2G G10U,0.36
18,A2G C32A,0.1
19,A2G C32U,0.3
20,A2G A18U,0.38
21,A2G A18G,0.48
22,A2G A18C,0.43
23,A2U A28G,0.65
24,A2U A28U,0.82

row,Variant,self-cleavage
1,A3C A18U,0.73
2,A3C A18G,0.64
3,A3C G46A,0.25
4,A3C U41G,0.56
5,A3C U41C,1.02
6,A3C U41A,0.24
7,A2C U72A,0.72
8,A2C U72C,0.9
9,A2C U25C,0.49
10,A2G C12U,1.04
11,A2G C12G,0.38
12,A2U G8A,0.27
13,A2U G8U,0.28
14,A2G C71U,0.24
15,A2C G36A,0.22
16,A2G C62U,0.32
17,A2G C62A,0.15
18,A2G C34U,0.29
19,A2G C34G,0.1
20,A2G C4U,1.09
21,A3C U74A,1.14
22,A2U C4U,1.15
23,A2G U41C,0.78
24,A2G U41A,0.42

row,Variant,self-cleavage
1,A2G U41G,0.49
2,A2U C37A,0.16
3,A3C G24A,0.29
4,A3G,1.02
5,A3C,1.16
6,A2G C39A,0.09
7,A2U A65G,0.26
8,A2U A65U,0.29
9,A3C A45G,0.93
10,A3C A45U,0.89
11,A2G U49A,0.42
12,A2G U49C,0.32
13,A2G C59A,0.23
14,A2G C59G,0.24
15,A2U C23U,0.35
16,A2U G6A,0.66
17,A2U U72C,1.11
18,A2U U72A,0.67
19,A2G A21U,0.35
20,A2G A21C,0.11
21,A2G A21G,0.42
22,A2U G9A,0.15
23,A2U G9C,0.45
24,A2U G16A,0.18

row,Variant,self-cleavage
1,A2G C37A,0.27
2,A2G C37U,0.66
3,A2G U66C,0.2
4,A2G U66G,0.28
5,A2U,0.96
6,A2G,0.7
7,A2G G9A,0.28
8,A2G G9U,0.42
9,A2U C17U,0.31
10,A2G U78C,0.58
11,A2G U78A,0.75
12,A2G A47C,0.29
13,A2G A47G,0.48
14,A2G U58C,0.25
15,A2U G22A,0.22
16,A2G U67C,0.26
17,A2G U67A,0.3
18,A2U A64U,0.28
19,A2U A64G,0.83
20,A3C U78C,1.12
21,A2C U76C,1.02
22,A3C G61C,0.32
23,A2U A18G,0.89
24,A2U A18U,0.41

row,Variant,self-cleavage
1,A2U A18C,0.28
2,A2U U60A,0.56
3,A2U U60C,0.47
4,A2C U66C,0.4
5,A3C G7U,0.39
6,A2G G7U,0.42
7,A2U A75U,1.09
8,A2U A75G,1.04
9,A3C U31G,0.93
10,A2U A35C,0.85
11,A2U A35G,1.19
12,A2U A35U,0.49
13,A2G U26G,0.18
14,A2G U26A,0.53
15,A2G U26C,0.4
16,A2G A64U,0.33
17,A2G A64G,0.55
18,A3C A5G,0.62
19,A3C A5C,1.23
20,A3C U26A,1.2
21,A3C U26C,0.6
22,A3C C11U,0.88
23,A2G U69C,0.32
